Reference: article PMC10377887, “Individual Contributions of Amido Acid Residues Tyr122, Ile168, and Asp173 to the Activity and Substrate Specificity of Human DNA Dioxygenase ABH2”

T1: ABH2 WT (human, UniProt Q6NS38 1-261)
T1 sequence: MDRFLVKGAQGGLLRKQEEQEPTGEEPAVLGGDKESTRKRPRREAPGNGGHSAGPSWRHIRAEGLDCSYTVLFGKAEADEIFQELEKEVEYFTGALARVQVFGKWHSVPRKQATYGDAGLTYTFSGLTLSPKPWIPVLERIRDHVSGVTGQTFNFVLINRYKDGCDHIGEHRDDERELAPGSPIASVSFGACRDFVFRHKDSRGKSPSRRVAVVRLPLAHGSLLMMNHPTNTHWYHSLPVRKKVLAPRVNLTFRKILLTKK

B1: m3C (dsDNA)
DNA 1: AGTTCAATGATCTTCAT
DNA 2: ATGAAGATCATTGAACT
modifications: N3-methylcytosine at position 12 of strand 1
B2: m1A (dsDNA)
DNA 1: AGTTCAATGATCTTCAT
DNA 2: ATGAAGATCATTGAACT
modifications: N1-methyladenine at position 10 of strand 1

Molecular target: T1, ABH2 WT
Assay: EMSA; 0.5 mM αKG, 10 mM Mg2+, 2 mM ascorbate; EMSA: 50 mM Tris-HCl pH 8.0, 50 mM KCl, 10 mM MgCl2, 0.5 mM αKG, 2 mM Na ascorbate; 1.2 µM DNA, 0.4-12.8 µM protein; 10 min 37 °C then 5 min on ice; 10% native
Details: protein: recombinant; tags: N-terminal His6; label: 5'-FAM on strand 1; blunt

Binder | Kd [nM]
B1 | 3500 ± 100
B2 | 2450 ± 70
